Sequences and labels used below:
B1: EhVps24 (natural protein)
chain: MGNLNSQTVDNSFQQKQFELKVNRDNLSKREKEYQNNIEKLNKEARKYCRKGDKENAKRQIKLRTLYETNLKEIRCYLDQTETILIQLEASKRNYDVAKLMDESNKEIKKILNKIPKNFIEEIINTKKENSDKLKEIDSLYEQLNDIDNENQIEQELNKLALEVMSEKEGGIEAVKNEVIAESLPEVNSQSDMLISKQNIVIETF
notes: EhVps24, Entamoeba histolytica ESCRT-III protein, endogenous in trophozoites; also called EhVps24 protein; source: endogenous, E. histolytica trophozoites (lysate for immunoprecipitation; fixed, permeabilized cells for flow cytometry)

In assay [1] the target is T1, EhVps32 (Entamoeba histolytica (endogenous in …, UniProt C4M1A5 1-204)).
T1 construct: EhVps32, Entamoeba histolytica ESCRT-III protein (ortholog of yeast Snf7/Vps32 and human CHMP4), endogenous in trophozoites; Precipitated and detected with the mouse polyclonal α-rEhVps32 antibody; also called EhVps32 protein; source: endogenous, E. histolytica trophozoites (lysate for immunoprecipitation; fixed, permeabilized cells for flow cytometry)
T1 sequence: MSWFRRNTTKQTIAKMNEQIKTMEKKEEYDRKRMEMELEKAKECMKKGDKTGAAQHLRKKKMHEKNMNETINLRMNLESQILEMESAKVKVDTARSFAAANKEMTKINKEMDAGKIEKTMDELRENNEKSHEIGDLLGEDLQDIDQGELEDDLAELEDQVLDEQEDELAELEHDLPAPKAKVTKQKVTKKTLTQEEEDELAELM
The assay can be described thus: flow cytometry on cells; PFA-fixed, Triton X-100 permeabilized trophozoites after 0, 5 and 30 min of erythrophagocytosis, stained with couples of primary antibodies and secondary antibodies with distinct fluorochromes; percent association of each couple. Particulars: partners not purified. Background: A flow cytometer gives signals particle by particle.

The target of assay [2] is B1. The description is as above. The conditions noted are these: partners not purified.

We go through three molecules from paper PMC5838018, “The Conserved ESCRT-III Machinery Participates in the Phagocytosis of Entamoeba histolytica” (Frontiers in Cellular and Infection Microbiology, 2018).

Consider B1, for which the “percent interaction, 30 min of erythrophagocytosis” value (“percent interaction, 30 min” below) in assay [1] was ~47%.

B2: EhVps2 (natural protein)
chain: MSRLFHKKTPQEIVREQKLNISKSIREITRESKRLEREEVRLTNEIRKMARLGRTNTVKVMAADLVKTKKQIDKLQVVIAQLNSTKMKLTEMSSMVAVTEAMNGVTNAMRKVNEATKLPAMQKVMNDFEKQNAELGIKNTMVSDMVNEGYEGDDIEEETELEVDKVLTEIGLDVENGLKPVPETRQRNTRLKERRQVQMEGGVKTRNEGNEQPEDLDTPGSRVPKAFNEGEDDEDEDDIVSRIANL
notes: EhVps2, Entamoeba histolytica ESCRT-III protein, endogenous in trophozoites; also called EhVps2 protein; source: endogenous, E. histolytica trophozoites (lysate for immunoprecipitation; fixed, permeabilized cells for flow cytometry)
As for B2, the “percent interaction, 30 min” value in assay [2] amounted to 10%.

B3: EhVps20 (natural protein)
chain: MLNRFIGKNEEPSIDETHAILESRVTDLDQKIVDLDRQIRQNIEMSHKTTGAESQRYKQKALMLLKQKKQHEQHRDITERHQMNLENVQFQVDQMKDYKKVYDAMAASNRQMKLISRQFDINSIEDVQDSMMNFAEDQQEFGDILSQDITNMDLNELDDELAELGDSMFEGDIQIPESDGFGSVPITNEPFRQKEESQPDDKKFAI
notes: EhVps20, Entamoeba histolytica ESCRT-III protein, predicted 206 amino acids, endogenous in trophozoites; also called EhVps20 protein; source: endogenous, E. histolytica trophozoites (lysate for immunoprecipitation; fixed, permeabilized cells for flow cytometry)
On to B3, for which, in assay [1], the “percent interaction, 30 min” value was ~47%.
